Source: publication doi:10.1101/2024.05.08.592654

Molecular target: GFP-PNUTS^W726A-HA (non-PP1 binding mutant) (Drosophila)
Experiment: affinity purification with mass spectrometry

fold more abundant with PNUTS^WT than with PNUTS^W726A: 12 fold
Substance: PP1-87B (from UniProt P12982 1-302) (enzyme)
